Values of other authors as cited in article PMC10564622.
pKd: −log10 of the molar value. Read-outs that look alike come from different tables or passages of the source. Blank lines part the entries; values can stand above or below the substance they belong to.

How the values were obtained:
[1] = biological target: CUL3 NTD with N-terminal deletion (Homo sapiens) (UniProt Q13618)
CUL3 NTD (Homo sapiens) [2] = biological target: CUL3 NTD (Homo sapiens) (UniProt Q13618)
CUL3 NTD (Homo sapiens) [3] = biological target: CUL3 NTD (Homo sapiens) (UniProt Q13618); remark: listed apart in the source

CUL3 NTD (Homo sapiens), sequence (Q13618 20-381): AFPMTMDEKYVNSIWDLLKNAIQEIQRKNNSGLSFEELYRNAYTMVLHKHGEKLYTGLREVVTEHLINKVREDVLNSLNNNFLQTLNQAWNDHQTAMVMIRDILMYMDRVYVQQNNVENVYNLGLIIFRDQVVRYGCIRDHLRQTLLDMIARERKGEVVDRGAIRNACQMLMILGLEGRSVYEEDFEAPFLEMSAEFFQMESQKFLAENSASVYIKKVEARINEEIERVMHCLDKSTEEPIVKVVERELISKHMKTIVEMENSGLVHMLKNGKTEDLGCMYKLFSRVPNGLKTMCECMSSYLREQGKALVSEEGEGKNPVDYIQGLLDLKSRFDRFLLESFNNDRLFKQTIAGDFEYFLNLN
SPOP BTB, sequence (O43791 170-300): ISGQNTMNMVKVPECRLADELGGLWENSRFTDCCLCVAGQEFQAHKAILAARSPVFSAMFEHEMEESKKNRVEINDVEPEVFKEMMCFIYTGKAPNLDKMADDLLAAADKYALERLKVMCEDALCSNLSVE
CUL3 NTD with N-terminal deletion (Homo sapiens), sequence (Q13618 20-381, stated change not applied): as the sequence (Q13618 20-381) above
SPOP BTB-3-box, sequence (O43791 177-319): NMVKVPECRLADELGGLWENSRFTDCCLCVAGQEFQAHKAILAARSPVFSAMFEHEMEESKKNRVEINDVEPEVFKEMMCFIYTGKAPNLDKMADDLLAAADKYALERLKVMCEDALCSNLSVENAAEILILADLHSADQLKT
KLHL3 BTB-BACK, sequence (Q9UH77 24-276): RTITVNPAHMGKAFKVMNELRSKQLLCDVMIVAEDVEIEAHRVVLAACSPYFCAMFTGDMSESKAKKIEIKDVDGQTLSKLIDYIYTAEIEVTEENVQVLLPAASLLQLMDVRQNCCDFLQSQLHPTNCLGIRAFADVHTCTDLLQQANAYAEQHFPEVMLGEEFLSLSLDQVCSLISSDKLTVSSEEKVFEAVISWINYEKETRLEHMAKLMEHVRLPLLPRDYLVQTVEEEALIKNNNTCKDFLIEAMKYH

pKd [1]: 6.96
Substance: KLHL3 BTB-BACK (from UniProt Q9UH77)

pKd (CUL3 NTD (Homo sapiens) [2]): 7.77
Substance: SPOP BTB-3-box (from UniProt O43791)

pKd (CUL3 NTD (Homo sapiens) [3]): 6.00
Substance: SPOP BTB (from UniProt O43791)
